The values that follow come from publication PMC6208366 (2018).

Test [1] has as its target human full-length Hsp90β (human, UniProt P08238 1-724). In words: ITC. On the technique in general: ITC needs no label: the signal is the heat of the interaction.
For test [2], the target named is T1, full-length human Tau (htau40, 441 residues, 2N4R) (human, UniProt P10636-8 1-441).
Test [3] deals with T1, full-length human Tau (htau40, 441 …). As to the kind of experiment: Hsp90 in presence of FKBP51 (1:1).
The target is the same in test [4]. This is another data set of the same source.

Read-outs that look alike come from different tables or passages of the source.

Sequence of human full-length Hsp90β (P08238 whole entry): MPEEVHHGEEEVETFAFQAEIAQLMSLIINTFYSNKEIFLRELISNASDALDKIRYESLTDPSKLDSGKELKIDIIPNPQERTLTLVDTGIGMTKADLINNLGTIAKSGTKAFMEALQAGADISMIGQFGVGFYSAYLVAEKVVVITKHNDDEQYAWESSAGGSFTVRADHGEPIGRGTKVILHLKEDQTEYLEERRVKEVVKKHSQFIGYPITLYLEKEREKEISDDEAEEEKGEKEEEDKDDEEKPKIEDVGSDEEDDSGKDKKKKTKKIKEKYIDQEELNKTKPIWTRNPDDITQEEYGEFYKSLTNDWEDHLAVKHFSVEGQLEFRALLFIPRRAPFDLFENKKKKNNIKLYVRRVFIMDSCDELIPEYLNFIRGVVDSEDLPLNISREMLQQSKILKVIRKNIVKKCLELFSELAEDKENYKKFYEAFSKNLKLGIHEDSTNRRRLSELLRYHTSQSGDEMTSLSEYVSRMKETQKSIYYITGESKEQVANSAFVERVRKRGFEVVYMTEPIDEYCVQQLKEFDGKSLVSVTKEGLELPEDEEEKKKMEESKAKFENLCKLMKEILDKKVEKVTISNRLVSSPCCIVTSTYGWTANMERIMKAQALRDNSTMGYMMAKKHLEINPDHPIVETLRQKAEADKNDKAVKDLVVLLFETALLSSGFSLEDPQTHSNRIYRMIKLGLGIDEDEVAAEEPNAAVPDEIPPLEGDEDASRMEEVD

B1: full-length human FKBP51 (natural protein)
chain: MTTDEGAKNNEESPTATVAEQGEDITSKKDRGVLKIVKRVGNGEETPMIGDKVYVHYKGKLSNGKKFDSSHDRNEPFVFSLGKGQVIKAWDIGVATMKKGEICHLLCKPEYAYGSAGSLPKIPSNATLFFEIELLDFKGEDLFEDGGIIRRTKRKGEGYSNPNEGATVEIHLEGRCGGRMFDCRDVAFTVGEGEDHDIPIGIDKALEKMQREEQCILYLGPRYGFGEAGKPKFGIEPNAELIYEVTLKSFEKAKESWEMDTKEKLEQAAIVKEKGTVYFKGGKYMQAVIQYGKIVSWLEMEYGLSEKESKASESFLLAAFLNLAMCYLKLREYTKAVECCDKALGLDSANEKGLYRRGEAQLLMNEFESAKGDFEKVLEVNPQNKAARLQISMCQKKAKEHNERDRRIYANMFKKFAEQDAKEEANKAMGKKTSEGVTNEKGTDSQAMEEEKPEGHV
As usually defined, the Kd is a measure of binding affinity in units of concentration. For B1, the Kd is 0.249 µM in test [1] and 45.1 µM in test [2].

B2: IANBD-labeled Hsp90 M362C/FKBP51 (1:1) complex (complex)
chain 1: not shown
chain 2: MTTDEGAKNNEESPTATVAEQGEDITSKKDRGVLKIVKRVGNGEETPMIGDKVYVHYKGKLSNGKKFDSSHDRNEPFVFSLGKGQVIKAWDIGVATMKKGEICHLLCKPEYAYGSAGSLPKIPSNATLFFEIELLDFKGEDLFEDGGIIRRTKRKGEGYSNPNEGATVEIHLEGRCGGRMFDCRDVAFTVGEGEDHDIPIGIDKALEKMQREEQCILYLGPRYGFGEAGKPKFGIEPNAELIYEVTLKSFEKAKESWEMDTKEKLEQAAIVKEKGTVYFKGGKYMQAVIQYGKIVSWLEMEYGLSEKESKASESFLLAAFLNLAMCYLKLREYTKAVECCDKALGLDSANEKGLYRRGEAQLLMNEFESAKGDFEKVLEVNPQNKAARLQISMCQKKAKEHNERDRRIYANMFKKFAEQDAKEEANKAMGKKTSEGVTNEKGTDSQAMEEEKPEGHV
modifications: IANBD amide fluorescent dye on Cys362 (M362C)
Consider B2, for which the Kd in test [3] was determined as 8.2 µM.

B3: IANBD-labeled Hsp90 M362C (natural protein)
chain: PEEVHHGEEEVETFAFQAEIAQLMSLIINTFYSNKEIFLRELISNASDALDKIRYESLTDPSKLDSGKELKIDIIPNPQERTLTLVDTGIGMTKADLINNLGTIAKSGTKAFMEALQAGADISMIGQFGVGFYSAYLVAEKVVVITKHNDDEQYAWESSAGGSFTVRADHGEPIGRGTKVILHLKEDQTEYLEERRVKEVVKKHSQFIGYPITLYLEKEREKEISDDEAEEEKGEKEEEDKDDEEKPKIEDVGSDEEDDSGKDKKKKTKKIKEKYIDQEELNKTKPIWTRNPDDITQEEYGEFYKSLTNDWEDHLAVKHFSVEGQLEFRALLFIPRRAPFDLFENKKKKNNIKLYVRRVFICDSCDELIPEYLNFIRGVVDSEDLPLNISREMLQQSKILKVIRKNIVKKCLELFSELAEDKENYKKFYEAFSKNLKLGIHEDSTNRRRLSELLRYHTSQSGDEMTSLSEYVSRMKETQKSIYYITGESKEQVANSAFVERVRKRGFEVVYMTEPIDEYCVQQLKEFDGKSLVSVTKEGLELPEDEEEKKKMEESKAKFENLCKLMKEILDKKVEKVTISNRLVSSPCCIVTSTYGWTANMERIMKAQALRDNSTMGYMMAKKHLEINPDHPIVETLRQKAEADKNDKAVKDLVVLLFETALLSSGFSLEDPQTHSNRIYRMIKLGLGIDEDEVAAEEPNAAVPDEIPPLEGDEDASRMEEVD
modifications: IANBD amide fluorescent dye on Cys362 (M362C)
B3 gave a Kd in test [4] of 4.2 µM.
